Assay results taken from article PMC6255812, “Structural basis for activation of plasma-membrane Ca^2+-ATPase by calmodulin” (Communications Biology, 2018).

T1: ACA8core (core of ACA8, residues 131-1074, construct lacking the regulatory domain) (UniProt Q9LF79 131-1074)
T1 construct: Embedded in MSP1D1/POPC nanodiscs in the assay; also called core enzyme; ACA8 mutant lacking the regulatory domain
T1 sequence (looked up): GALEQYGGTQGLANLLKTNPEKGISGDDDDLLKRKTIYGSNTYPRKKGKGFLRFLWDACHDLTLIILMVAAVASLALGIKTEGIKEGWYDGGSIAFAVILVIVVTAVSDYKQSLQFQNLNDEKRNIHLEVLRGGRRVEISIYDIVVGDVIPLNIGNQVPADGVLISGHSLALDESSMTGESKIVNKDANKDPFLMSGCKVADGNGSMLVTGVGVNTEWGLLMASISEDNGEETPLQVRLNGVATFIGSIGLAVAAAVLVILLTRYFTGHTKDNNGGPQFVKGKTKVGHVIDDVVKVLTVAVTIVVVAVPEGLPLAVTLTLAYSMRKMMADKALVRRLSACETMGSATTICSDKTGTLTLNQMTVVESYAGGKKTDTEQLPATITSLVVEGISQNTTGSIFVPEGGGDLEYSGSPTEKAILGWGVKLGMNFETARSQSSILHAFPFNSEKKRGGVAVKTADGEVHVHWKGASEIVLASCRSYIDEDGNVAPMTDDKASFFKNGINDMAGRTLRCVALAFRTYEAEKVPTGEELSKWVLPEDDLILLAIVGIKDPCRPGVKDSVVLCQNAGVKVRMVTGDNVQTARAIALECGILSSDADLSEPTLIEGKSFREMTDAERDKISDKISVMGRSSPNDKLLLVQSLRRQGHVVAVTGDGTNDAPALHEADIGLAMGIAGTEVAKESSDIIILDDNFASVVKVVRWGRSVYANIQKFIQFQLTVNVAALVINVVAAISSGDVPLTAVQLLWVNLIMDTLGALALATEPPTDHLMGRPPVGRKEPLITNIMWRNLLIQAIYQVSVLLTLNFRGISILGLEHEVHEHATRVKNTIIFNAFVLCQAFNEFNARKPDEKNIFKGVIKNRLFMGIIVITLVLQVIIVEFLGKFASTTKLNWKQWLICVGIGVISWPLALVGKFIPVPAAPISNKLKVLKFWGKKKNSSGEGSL

B1: full-length ACA8 (plasma-membrane Ca2+-ATPase ACA8) (enzyme)
chain: MTSLLKSSPGRRRGGDVESGKSEHADSDSDTFYIPSKNASIERLQQWRKAALVLNASRRFRYTLDLKKEQETREMRQKIRSHAHALLAANRFMDMGRESGVEKTTGPATPAGDFGITPEQLVIMSKDHNSGALEQYGGTQGLANLLKTNPEKGISGDDDDLLKRKTIYGSNTYPRKKGKGFLRFLWDACHDLTLIILMVAAVASLALGIKTEGIKEGWYDGGSIAFAVILVIVVTAVSDYKQSLQFQNLNDEKRNIHLEVLRGGRRVEISIYDIVVGDVIPLNIGNQVPADGVLISGHSLALDESSMTGESKIVNKDANKDPFLMSGCKVADGNGSMLVTGVGVNTEWGLLMASISEDNGEETPLQVRLNGVATFIGSIGLAVAAAVLVILLTRYFTGHTKDNNGGPQFVKGKTKVGHVIDDVVKVLTVAVTIVVVAVPEGLPLAVTLTLAYSMRKMMADKALVRRLSACETMGSATTICSDKTGTLTLNQMTVVESYAGGKKTDTEQLPATITSLVVEGISQNTTGSIFVPEGGGDLEYSGSPTEKAILGWGVKLGMNFETARSQSSILHAFPFNSEKKRGGVAVKTADGEVHVHWKGASEIVLASCRSYIDEDGNVAPMTDDKASFFKNGINDMAGRTLRCVALAFRTYEAEKVPTGEELSKWVLPEDDLILLAIVGIKDPCRPGVKDSVVLCQNAGVKVRMVTGDNVQTARAIALECGILSSDADLSEPTLIEGKSFREMTDAERDKISDKISVMGRSSPNDKLLLVQSLRRQGHVVAVTGDGTNDAPALHEADIGLAMGIAGTEVAKESSDIIILDDNFASVVKVVRWGRSVYANIQKFIQFQLTVNVAALVINVVAAISSGDVPLTAVQLLWVNLIMDTLGALALATEPPTDHLMGRPPVGRKEPLITNIMWRNLLIQAIYQVSVLLTLNFRGISILGLEHEVHEHATRVKNTIIFNAFVLCQAFNEFNARKPDEKNIFKGVIKNRLFMGIIVITLVLQVIIVEFLGKFASTTKLNWKQWLICVGIGVISWPLALVGKFIPVPAAPISNKLKVLKFWGKKKNSSGEGSL
notes: Integral membrane protein; in most experiments embedded in MSP1D1 nanodiscs (POPC, POPC/POPG, POPC/soy-PI or deuterated stealth nanodiscs); The nanodisc belt protein is a carrier and not a partner; also called apo-ACA8; ACA8-ND; source: used DDM-solubilised or reconstituted in MSP1D1 nanodiscs (Superdex200)
B2: fluorescein-labeled regulatory domain of ACA8 (ACA8RD, residues 1-130) (domain or fragment)
chain: CMTSLLKSSPGRRRGGDVESGKSEHADSDSDTFYIPSKNASIERLQQWRKAALVLNASRRFRYTLDLKKEQETREMRQKIRSHAHALLAANRFMDMGRESGVEKTTGPATPAGDFGITPEQLVIMSKDHNS
modifications: Alexa Fluor 488 C5 maleimide (the paper also calls it fluorescein) for labelling of the introduced cysteine
notes: a cysteine introduced right before the first residue of the regulatory domain, for site specific labeling with thiol-reactive probes; ACA8 regulatory domain, residues 1-130; also called labeled RD; not shown: His6, N-terminal, cleaved; lipoamyl domain, N-terminal, cleaved

Tests used:
[1] = target: T2, fluorescein-labeled CaM (CaM7 from A. thaliana) (A. thaliana, UniProt P59220 1-149, Alexa Fluor 488 C5 maleimide label (the paper also calls it fluorescein-labeled and FITC-labeled); site not stated); experiment: fluorescence polarisation; fluorescence anisotropy; full-length ACA8 in POPC nanodiscs titrated into 15 nM labelled CaM; 20 °C; 30 mM Tris pH 8.0, 150 mM NaCl, 2 mM CaCl2, 0.5 mM TCEP; one-site model; apparent; details: both partners purified
T2 construct: calmodulin 7 (CaM7), A. thaliana; Same protein as m2 with a thiol-reactive fluorophore; also called FITC-labeled CaM; source: E. coli BL21 Gold (DE3), purified (HiTrap Phenyl HP), labelled, PD10 column

[2] = target: T1, ACA8core (core of ACA8, residues …); experiment: fluorescence polarisation; fluorescence anisotropy; 25 µM ACA8core in POPC nanodiscs titrated into 50 nM labelled ACA8RD; 20 °C; 30 mM Tris pH 8.0, 150 mM NaCl, 2 mM CaCl2, 0.5 mM TCEP; one-site model; details: both partners purified

Binder | Kd [1] | Kd [2]
B1 | 18 nM | –
B2 | – | 1700 nM
